Where a SMILES comes first, the peptide text is derived from it. Where no end group is shown, it is not given here. [ ]: non-standard residue; d: D form. The star is where a group is joined. Sta = CC(C)C[C@H](N)[C@@H](O)CC(=O)O; Isovaleryl = CC(C)CC(=O)*
How the values were obtained:
Gastricsin [1] = biological target: T1, Gastricsin (Homo sapiens, UniProt P20142); test: Cleavage of peptide substrates by gastricsin (MSP-MS assay); assay type: biochemical; design: purchased R&D Systems 6186-AS; details: Target Protease Gastricsin; for Relative Cleavage: relative to the most cleaved substrate (1.00)
T1 sequence (P20142 60-388): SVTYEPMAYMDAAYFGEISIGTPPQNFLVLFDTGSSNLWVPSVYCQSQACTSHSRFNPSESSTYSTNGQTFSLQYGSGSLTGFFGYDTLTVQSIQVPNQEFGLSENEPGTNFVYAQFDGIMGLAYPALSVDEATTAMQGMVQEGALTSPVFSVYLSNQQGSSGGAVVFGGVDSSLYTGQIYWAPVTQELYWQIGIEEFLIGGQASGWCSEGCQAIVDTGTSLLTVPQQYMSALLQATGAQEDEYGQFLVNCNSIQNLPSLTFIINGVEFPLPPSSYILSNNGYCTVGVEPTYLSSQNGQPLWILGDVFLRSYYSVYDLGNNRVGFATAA
Description: (§1) The MSP-MS assay was performed as previously described (34). Cyst fluid was diluted to 100 μg/mL in assay buffer (either pH 7.5 phosphate buffer or pH 3.5 acetate buffer) and pre-incubated for 10 minutes. For analysis of protease inhibitor sensitivity, 1 mM AEBSF (Sigma, A8456), 2 μM E-64 (Sigma, E3132), 2 μM pepstatin (Sigma, P5318), 2 mM 1,10-phenanthroline (Sigma, 131337), or DMSO were included in pre-incubation. The 228 tetradecapeptide library was split into two pools and diluted in assay buffer to a concentration of 1 μM of each peptide. 75 μL of diluted cyst fluid and peptide pools were then combined and incubated at room temperature. 30 μL aliquots were removed after 15 and 60 minutes, protease activity quenched with 8 M guanidinium hydrochloride, and flash-frozen in liquid N2. For recombinant gastricsin (R&D Systems, 6186-AS), cathepsin D (R&D Systems, 1014-AS), and cathepsin E (R&D Systems, 1294-AS), the MSP-MS assay was performed as described above with slight modifications: 10 nM of recombinant protease in pH 3.5 acetate buffer was used and aliquots were removed after 15, 60, and 240 minutes.
(§2) Prior to peptide cleavage site identification by mass spectrometry, samples were desalted using C18 tips (Rainin). Mass spectrometry analysis was carried out with an LTQ Orbitrap XL mass spectrometer coupled to a 10,000 psi nanoACQUITY Ultra Performance Liquid Chromatography (UPLC) System (Waters) for peptide separation by reverse phase liquid chromatography (RPLC). Peptides were separated over a C18 column (Thermo) and eluted by applying a flow rate of 300 nL/min with a 65-minute linear gradient from 2-30% acetonitrile. Survey scans were recorded over a 325-1500 m/z range and the six most intense precursor ions were fragmented by collision-induced dissociation (CID) for MS/MS.
(§3) Raw mass spectrometry data was processed to generate peak lists using MSConvert. Peak lists were then searched in Protein Prospector v. 5.10.0 (35) against a custom database containing the sequences from the 228 tetradecapeptide library. Searches used a mass accuracy tolerance of 20 ppm for precursor ions and 0.8 Da for fragment ions. Variable modifications included N-terminal pyroglutamate conversion from glutamine or glutamate and oxidation of tryptophan, proline, and tyrosine. Searches were subsequently processed using the MSP-xtractor software (http://www.craiklab.ucsf.edu/extractor.html), which extracts the peptide cleavage site and spectral counts of the corresponding cleavage products. Spectral counts were used for the relative quantification of peptide cleavage products.

Cathepsin E [2] = biological target: T2, Cathepsin E (Homo sapiens, UniProt P14091); test: Cleavage of peptide substrates by cathepsin E (MSP-MS assay); assay type: biochemical; design: purchased R&D Systems 1294-AS; details: Target Protease Cathepsin E; for Relative Cleavage: relative to the most cleaved substrate (1.00)
T2 sequence (P14091 54-396): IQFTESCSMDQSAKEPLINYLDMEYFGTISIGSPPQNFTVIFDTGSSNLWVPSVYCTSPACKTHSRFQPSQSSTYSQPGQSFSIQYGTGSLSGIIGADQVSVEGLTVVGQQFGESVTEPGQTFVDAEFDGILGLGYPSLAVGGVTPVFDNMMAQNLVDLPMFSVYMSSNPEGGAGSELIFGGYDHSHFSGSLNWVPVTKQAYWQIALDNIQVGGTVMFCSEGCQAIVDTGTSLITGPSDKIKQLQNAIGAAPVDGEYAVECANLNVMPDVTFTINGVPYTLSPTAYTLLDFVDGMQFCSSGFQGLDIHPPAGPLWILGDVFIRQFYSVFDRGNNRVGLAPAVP
Description: as §1, §2, §3

[3] = system: protease activity of mucinous cyst fluid sample; test: MSP-MS analysis of protease inhibitor sensitivity in mucinous cyst fluid; assay type: biochemical, human; details: for number of mucinous-specific substrates whose cleavage was inhibited: 1 mM AEBSF, 2 mM 1,10-phenanthroline
Description: as §1, §2, §3

[4] = system: cathepsin E and gastricsin protease activity in cyst fluid; test: Pepstatin inhibition of fluorescent substrate cleavage by mucinous cyst fluid; assay type: biochemical, human; details: fluid from a mucinous cyst, pre-incubation with 2 μM pepstatin; FIG. 11
Description: All fluorescent protease activity assays were performed in triplicate in black, round-bottom 384 well plates. Assays were run for 1 hour in 15 μL of acetate buffer with 0.01% Tween. The pH of the acetate buffer was adjusted to promote activity of either aspartyl protease (pH 3.5 for the cathepsin E substrate and pH 2.0 for the gastricsin substrate). 10 μM of substrate was used for all assays (unless otherwise indicated) and was incubated with either 10 nM of recombinant protease or 50 μg/mL of cyst fluid protein. For kinetic analysis of gastricsin activity, the substrate concentration ranged from 0.1-25 μM. For analysis of inhibitor sensitivity, cyst fluid samples were pre-incubated with 2 μM of pepstatin. Fluorescent substrate cleavage was monitored with a Biotek Synergy HT plate reader using excitation and emission wavelengths of 328 nm and 393 nm, respectively. Selectivity of the recombinant proteases was assessed by comparing the initial velocity of substrate hydrolysis in relative fluorescent units per second (RFU/sec). For cyst fluid samples, the change in endpoint RFU was compared relative to wells that contained substrate, but no cyst fluid.

Gastricsin [5] = biological target: T1, Gastricsin; test: Gastricsin fluorescent substrate assay in patient cyst fluid, mucinous vs nonmucinous cysts; design: both proteases are released into cyst fluid in their proforms; from tissue; host or cells: human pancreatic cyst fluid; details: differentiating mucinous from nonmucinous cysts; 110 cyst fluid samples; cutoff 1.23-fold change in fluorescence
Excerpt: (§4) Pancreatic cyst fluid samples were collected from preconsented patients under institutional review board oversight. All patients included in the study underwent surgical resection of their cystic lesion and have a pathologically confirmed diagnosis. The highest grade of dysplasia observed during pathological evaluation of each cystic lesion is reported. Samples were collected either at the time of surgical resection or during diagnostic endoscopic ultrasound prior to resection of the cystic lesion. Cyst fluid samples were split into 100 μL aliquots and frozen to −80° C. within 60 minutes of collection. Samples underwent at most two freeze-thaw cycles prior to experimental analysis. Total cyst fluid protein concentration was determined by the bicinchoninic acid assay. CEA levels were evaluated for the majority of samples, but were unavailable in 21 cases due to limited cyst fluid volume.
(§5) All fluorescent protease activity assays were performed in triplicate in black, round-bottom 384 well plates. Assays were run for 1 hour in 15 μL of acetate buffer with 0.01% Tween. […] Fluorescent substrate cleavage was monitored with a Biotek Synergy HT plate reader using excitation and emission wavelengths of 328 nm and 393 nm, respectively. Selectivity of the recombinant proteases was assessed by comparing the initial velocity of substrate hydrolysis in relative fluorescent units per second (RFU/sec). […]

Gastricsin [6] = biological target: T1, Gastricsin; test: Fluorescent protease activity assay with recombinant gastricsin; assay type: biochemical; design: purchased R&D Systems 6186-AS
Description: (§6) Synthesis of internally quenched fluorescent peptides was conducted using Fmoc solid-phase peptide synthesis on a Syro II automated synthesizer (Biotage). Briefly, reactors were charged with Wang resin preloaded with Fmoc-Lys(dinitrophenol) (Anaspec, A23856). Coupling reactions were conducted on a 0.0125 mmol scale in 500 μL of DMF with 5 equivalents of Fmoc amino acid (Anaspec), 4.9 equivalents of HCTU (Anaspec), and 20 equivalents of N-methylmorpholine (NMM). Fmoc deprotection was conducted by incubation with 500 μL 40% 4-methlypiperidine in DMF, followed by 500 μL 20% 4-methlypiperidine in DMF. Substrates were capped with a […] Lys-(7-methoxycoumarin-4-acetic acid)-OH (EMD Millipore, 852095) followed by two D-Arg residues to enhance solubility. Peptides were removed from resin by incubating with 500 μL of cleavage solution (95% trifluoroacetic acid, 2.5% water, 2.5% Triisopropylsilane). […]
as §5, with “plates.” for “plates. Assays were run for 1 hour in 15 μL of acetate buffer with 0.01% Tween.”

Cathepsin E [7] = biological target: T2, Cathepsin E; test: Cathepsin E fluorescent substrate assay in patient cyst fluid, mucinous vs nonmucinous cysts; design: both proteases are released into cyst fluid in their proforms; from tissue; host or cells: human pancreatic cyst fluid; details: differentiating mucinous from nonmucinous cysts; 110 cyst fluid samples; cutoff 1.23-fold change in fluorescence
Excerpt: as §4, §5

Cathepsin E [8] = biological target: T2, Cathepsin E; test: Fluorescent protease activity assay with recombinant cathepsin E; assay type: biochemical; design: purchased R&D Systems 1294-AS
Description: as §6
as §5, with “plates.” for “plates. Assays were run for 1 hour in 15 μL of acetate buffer with 0.01% Tween.”

[9] = single mucinous cyst fluid sample, FIG. 2A
[10] = single mucinous cyst fluid sample, 2 μM pepstatin, FIG. 2A

Total Cleavage (Gastricsin [1])	Relative Cleavage (Gastricsin [1])	Total Cleavage (Cathepsin E [2])	Relative Cleavage (Cathepsin E [2])	Compound	further results
22	0.34			VGKWSYRM [VGKW|SYRM, gastricsin peptide substrate]	
		25	1.00	GLYFRYE [GLY|FRYE, cathepsin E peptide substrate]	
21	0.33			NMKWTRVL [NMKW|TRVL, gastricsin peptide substrate]	
				c1cnc2c(c1)ccc1cccnc12 [1,10-phenanthroline]	number of mucinous-specific substrates whose cleavage was inhibited [3, 9]: 3 substrates
64	1.00			PWTWYGVK [PWTW|YGVK, gastricsin peptide substrate]	
		10	0.40	HMIALYWG [HMIA|LYWG, cathepsin E peptide substrate]	
				Cl.NCCc1ccc(S(=O)(=O)F)cc1 [AEBSF]	number of mucinous-specific substrates whose cleavage was inhibited [3, 9]: 3 substrates
		17	0.68	IKILMFYW [IKIL|MFYW, cathepsin E peptide substrate]	
				CC(C)CC(=O)N[C@H](C(=O)N[C@H](C(=O)N[C@@H](CC(C)C)[C@@H](O)CC(=O)N[C@@H](C)C(=O)N[C@@H](CC(C)C)[C@@H](O)CC(=O)O)C(C)C)C(C)C [pepstatin] (Isovaleryl-VV[Sta]A[Sta]-OH)	effect on cleavage of the mucinous-specific substrates ([3]; second mucinous cyst fluid sample, FIG. 8): block cleavage of the majority of the mucinous-specific substrates; number of additional mucinous-specific substrates whose cleavage was partially inhibited [3, 10]: 8 substrates; number of mucinous-specific substrates whose cleavage was fully inhibited [3, 10]: 20 substrates; inhibition of cleavage of gastricsin and cathepsin E fluorescent substrates [4]: fully inhibited
		22	0.88	FGIFYLNG [FGIF|YLNG, cathepsin E peptide substrate]	
30	0.47			DEGWALQH (also: fluorophore and quencher) [DEGW|ALQH]	Sensitivity (Gastricsin [5]): 93%; Specificity (Gastricsin [5]): 100%; limit-of-detection of gastricsin (Gastricsin [6]; fluorescence-based activity assay, FIG. 16): approximately 600 ng/mL; selectivity for gastricsin over both cathepsins D and E (Gastricsin [6]; initial velocity of substrate hydrolysis, 10 nM recombinant protease, 10 μM substrate (FIG. 4D)): greater than 120 fold
				AGFSLPA (also: fluorophore/quencher) [AGFSL|PA]	Sensitivity (Cathepsin E [7]): 70%; Specificity (Cathepsin E [7]): 92%; limit-of-detection of cathepsin E (Cathepsin E [8]; fluorescence-based activity assay, FIG. 17): approximately 4 μg/mL; selectivity for cathepsin E over both cathepsin D and gastricsin (Cathepsin E [8]; initial velocity of substrate hydrolysis, 10 nM recombinant protease, 10 μM substrate): more than 100 fold

— US11726091B2, “Compositions and methods of diagnosing pancreatic cancer” (THE REGENTS OF THE UNIVERSITY OF CALIFORNIA, priority 2017, dated 2023)
